Legend:
[1] = target: EGFRvIII (mutant epidermal growth factor receptor) on NR6M cells (human) (UniProt P00533); experiment: cell-based or functional assay
[2] = target: EGFRvIII peptide (…-biotin); experiment: SPR (BIAcore), biotinylated peptide on streptavidin chip, immunotoxin injected

Substance: MR1(Fv)-PE38 (from UniProt P11439 278-389; P11439 406-638) (scFv)
- IC50, cytotoxic activity, Experiment 1 [1]: 9.2 ng/mL
- IC50, cytotoxic activity, Experiment 2 [1]: 6.6 ng/mL
- IC50, cytotoxicity (inhibition of [3H]-leucine incorporation) on NR6M cells [1]: 8 ng/mL
- Kd [2]: 8 nM

— patent US7129332
